Data as given in the nanobody polyreactivity screen of Harvey et al. (2022).

Experiment: yeast display, Sf9 membrane polyspecificity reagent, FACS + sequencing; frameworks hold sequencing errors
How it was run: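 After 36–48 hours of galactose induction, yeast (Saccharomyces cerevisiae BJ5465) displaying a synthetic nanobody library were stained at 4 °C for 1 hour with 10% biotinylated, detergent-solubilized Sf9 membrane reagent. Streptavidin microbeads enriched the stained cells before FACS sorting into low and high (top ~1%) gates on anti-HA and streptavidin fluorescence. Each clone's polyreactivity label reflects its gate of origin.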

Sequence	polyreactivity (PSR sort gate)
QVQLVESGVRLVQSGGSLRLSCASSGFTIWRYAMGWYRQAPGKERELVAAISRSGTRTYYADSVKGRFTISRDNAKNTVYLQMNSLKPEDTAVYYCAADGLSLAYEHDYWGQGTQVTVSS	high polyreactivity
QVQLVESGGGLVLAGGSLRLSCAASGRIFRWYAMGWYRQAPGKERELDATISSTGGSTYYADSVKGRFTISRDNAKNTVYLQMNSLKPEDTAVYYCNAVVYGIFLYAWYDYWGQVTQVTVSS	low polyreactivity
QVHLVESGGGLVQAGDSLRLSCASSGIIFYDYAMGWYRPAPGKERELVAAITSSGGSTYYADSVKGRFTISRDNAKNTVYLQMNSLIPEDTAVYYCAAATRGSGRRYDYLGQGTQVTVSS	high polyreactivity
QVQLVESGGGLVQAGGILRLSCAASGSIFPGYAMGWYRQAPGKERELVAAISTSGGSTYADSVKGRFTISRDNAKNTVYLQMNSLKPEDTAVYYCAATYTYTSPVYYSLDGPWPYDYWGQGTQVTVSS	low polyreactivity
QVQLVESGGGLVQAGGSLRLSCAASGGTFDSYAMGWYRQAHGKERELVAAITRRTSSTYYADSVKGRFTISRDNAKNTVYLQMHSLKPEDTAVYYCNADSYYYDHRDFGYWGQGTLVTVSS	high polyreactivity
QVQLVESGGGLVQAGGSLRLSCAASGTFYGKTMGWYRQAPGKERELDAVISIDGSTNYADSVKGRFTISRDNAKKTVYLQMNSLKPEDTAVYYCNARNQWRTVGKYDYWGQGTQVTVSS	low polyreactivity
QVQLVETGGGLVQAGGSLRLSCASSGFIFVRYAMGWYRQAPGKERELVAAITKGGGRTYYADSVKGRFTISRDNAKNTVYLQMNSLKPEDTAVYYCATAGAHGRERDYWGQGTQVTVSS	high polyreactivity
QVQLVESGGGLVQAGGSLRLSCAASGSIYGDYVMGWYRQAPGKERELVAAINRGGYTYYADSVKGRFTISRDNAKNTVYLQMNSLKPEDTAVYYCAAGYPSWYYGYPYDSWGQGTQVTVSS	low polyreactivity
QVQLVESGGGLVQAGGSLRLSCAASGSTLSKYGMGWYRQAPGKERDLVAAISYSSGSTYYADSVKGRFTISRDNAKNTVYLEMNSLKPEDTAVDYCAADRFRSLHYWTYDYWGQGTQVTVSS	high polyreactivity
QVQLVESGGGLVQAGGSLRLICAASGFTFHSYAMGWYRQAPGKERELVAAITTDGSTYYADSVKGRFTISRDNAKNTVYLQMTSLKPEDTAVYYCAAGKAYWYARKPYARYYYWGQGTQVTVSS	high polyreactivity
QVQLLESGGGLLQAGGSLRLSCAASGLTFGKYAMGWYRQAPGKERELVAAINSSGGSTYYADSVKGRFTISRDNAKNTVYLQMNSLKPEDSAVYYRAVAVYRLIYFVYNYWGQGTQVTVSS	low polyreactivity
QVQLVESGGGLVQAGGSLRLSCAASGSTFIYYTMGWYRQAPGKERELVAAISWRGGSTYYADSVKGRFTIARDNAKNTVYLQMNSLKPEDTAVYYCATGYLYFTSYRYNYWGQGTQVTVSS	low polyreactivity
QVQLVESGGGLVQAGGSLRLSCAASGNTFVTYTMGWYRQAPGKERELVADISSGGSTYYADSVKGRFTISRDNAKNTVYLQMNSLKPEDTAVYYCAVQQAVFRSYYIYHRYYWGQGTQVTVSS	high polyreactivity
QVQLVESGGGLVQAGGSLRLTCAASGGIFRPNAMGWYRPAPGKERELVASIDDGDSTNYADSVKGPFTISRDNAKNTVSLQMNSLKPEDTAVYYFAAEQGYTVIYDYWGQGSQVTVSS	low polyreactivity
QVHLLESWGGLFHAGGSPRLSCAASGRTFGRYAMGWYRQSPATERELVAAITFRGGHSYYADSVKGRFTISRDNAKNTVYFQMNSLKPEDTAVYYCAKRGGYWHKFDYWGQGTQVTVSS	high polyreactivity
QVQLVESGGGLVQAGGSLRLSCAASGRTFYYNGMGWYRQAPGKERELVAAITSGGTTSYADSVKGRFTISRDNAKNTVYLQRNSLKPEDTAVYYCNADYWAVNYDYWGQATQVTVSS	low polyreactivity
QVQLVESGGGLVQAGGSLRLSCAASGFTFKFNAMGWYRQAPGKERELVAAISYSGGSTYYADSVKGRFTISRDNAKNTVYLQMNSLKPEDTAVYYCAARAYWYGASYYYWGQGPQVTVSS	high polyreactivity
QVQLVESGGGLVQAGGSLRLSCAASGIFLGYALGWYRQAPGKERELVAAITSGDSTYYADSVKGRFTISRDNAKNTVYLQMNSLKPEDTAVYYCAKTRYSWPRVWYNYWGQGTQVTVSS	low polyreactivity
QVQLVESVGGLVQAGGSLRLSCAASGITSGTYAMGWYRQAPGKERELVAAISSSGGRTYYADSVKGRFTISRDNAKNTVYLQMNSLKPEDTAVYYCAARIRLSLRTGYDYWGQGTQVTVSS	high polyreactivity
QVQLVESGGGLVQAGGSLRLSCAASGLTSDYNAMGWYRQAPGKERELVAAISSGGRTYYADSVKGRFTISRDNAKNTVYLQMNSLKPEDTAVYYCAAEFRVLRGYQYDYWGQGTQVTVSS	high polyreactivity
QLQLEESGGGLVQAGASLPLSCAASGLTFVEYAMGCYRQAPGKEREFVAAIRSRGGSTYYADSVKGRFTISRDNAKTTVYLQMNSLKPEDTAVYYCNADGYFWGQGTQVTVSS	low polyreactivity
QVQLVESGGGLVQAGGSLRLSCAASGGTFRYYAMGWYRQAPGKEREFVAAITSSGGSTYYADSVKGRFTISRDNAKKTVYLQMNRLKPEDTAGYYCATDNPFLWWFRPDQHGMGYWGQGTQVTVSS	low polyreactivity

Sequence	polyreactivity (PSR sort gate)
QVQHVESGGGLVQAGGSLRLSCAASGSIFTDYAMGWYRQAPGHDRELVAAITLGGNTNYADSVKGRFTISRDNAKHSVYLEMISLLREDTAVYDCATGGYYSAIVYGGYDVWGQGTQVTVSS	low polyreactivity
QVQLVESGGGLVQAGGSLRLSSSASGSIFDGYAMGWYRQAPGKEREFVAAIRWGDGIKYYADSVKGRFTISRDNAKNTVYLQMNSLTPEDTAVYYCAAVQHGHEPRVQDSYDYWGQGTQVTVSS	low polyreactivity
QVQLEESGGGLVQAGGSLRLSCAASGRIFQYYVRGWYRQAPGKERELVAAITRRGTNTYYADSVKGRFTISRDNAKNTVYLQMHSLNPEETAVYYCAATYYWSGYPVKTTSDYWGQGTQITVSS	high polyreactivity
QVQLVESGGGLVQAGGSLRLSCAASGFTFSYNAMGWYRQAPGKERELVAGISYGGGNTFYADSVKGRFTISRDNAKNTVYLQMNSLKPEDTAVYDCAAVNKSGTYVEYDYWGQGTQVTVSS	low polyreactivity
QVQLVESGGGIVHAGGSLRLSCAASGSTFDSYARGWYRQAPGKERELVAAITDSGSSTYYADSVKGRFTISRDNAKNTVYLQMNSLKPEDSAVYYCANYDYHGWSYYRYDYWGQGTQVTVSS	low polyreactivity
QVQLVESGGGLVQAGGSLRLSCAASGSTFRIYAMGWYRQAPGKERELVAAIRRRGASTYYADSVKGRFTISRDNAKNTVYLQMISLKPEDTAVYYCAASYFWDRVPGRGIHDYWGQGTQVTVSS	high polyreactivity
QVQLVESGGGLVQAGGSLRLSCAASGSIFLQYAMAWYRQAPGKERELVAAISWSGGSTYYAYSVKGRFTISRDNAKNTVYLQMNSLKPEDTAVYYCAAPITPYSHYRMDYWGQGTQVTVSS	low polyreactivity
QVQRVESGGGLVQAGGSLRLSCAASGSIFNSNAMGWYRLAHGKERELVAAINWRGGSTYYADSVKGRFTISRDNAKNTVYLQMNSLKPEDSAVYYCAAVGWFHDYYWGQGTQLTVSS	high polyreactivity
QVQLVESGGGLVQAGGSLRLSCAASGSIFQYYGMGWYRQAPGKERELVASISRSGGSTYYADSVKGRFTISRDNAKNTVYLQMNSLKPEDTAVYYCNKRTYRQLSSWDYTYYYWGQGTQVTVSS	low polyreactivity
QGQLQESGGGLVKAGGSLRLSCPASGNISNHKDMGWYRQAPGKESEFVAGITAGGITNYADSVTGRFTICRDNAKNTVDLVMNSLKPEDTAVYYSAAYPDYAKSYGYWGQGTQATVSS	low polyreactivity
QVQLVESGGGLVQAGGSLRLSSAASGSIFTGSALGWYRQAPGKEREFFARITKRGVSTYYADSVKGRFTISRDKAKNTVYLHMNSLKPEDTAVYYCNADRKFPYGSYETHDYWGQGPQVTVSS	high polyreactivity
QVQLVESVGGLVQAGGSLRLSCAASGFTFYTYAMGWYRQAPGKERELVAAINQRGGRTYYADSVKGRFTISRDNAKNTVYLQMNSLKPEDTAVYYCAKSPPPKTRYDYWGQGTQVTVSS	high polyreactivity
QVQLVESGGGLVQAGGSLRISCAASGSTFSYYAMGWYRQAPGKERELVAAISSRGGSTYYADSVKGRFTISRDNAKNTVYLQMNSLKPEDTAVYYCAAVRNRHGYDYWGQGTQVTVSS	high polyreactivity
QVQLVESGGGLVQAGGSLRLSCAASGSTFTGYAMGWYRQAPGQERELVAAISRSGGSTYYADSVKGRFTISRDNAKNTVYLQMNSLKPEDTAVYYCNARGFTRYTVGRNYWGQGTQVTVSS	high polyreactivity
QVQLVESGGGLVQAGGSLRLSCDASGSTFGANAMGWYRQAPGKEREFVAAISRSGVRTYYADSVKGRFTISRDNAKNTVYLQMNSLKPEDTAVYYCAADGYWWTYTRYDYWGQGTQVTVSS	low polyreactivity
QVQLEESGGGLVQAGGSLRLSSAASGFIYVYAMGWYRQAPGKVRELVAAITATGDSTYYADSVKGRFTISRDNAKNTVYLQMNSLKPEDTAVYYCARNVNAQKVLGGFDSWGQGTQVNVSS	low polyreactivity
QVQLVESGGGLVQAGGSLRLTCAASGRTFSYNAMGWYRQAPGKERELVAAISYDGGRTYYADSVKGRFTISRDNAKNSVYLQMNSLKPEDTAVYFCAAYPYRCPHPWTIGDYWGQGTQVTVSS	low polyreactivity
QVQLVESGGGLVQAGGSLRLSCAASGNTFSDYAMGWYRQAPGKERELVAAISSSGVRTYYADSVKVRFTISRDNAKNTVYLHMISLNPEDTAVYYCAADNYYYRFVAAMDYWGQGTQVTVSS	high polyreactivity
PVQLVESWGGLDQAGGSLRLICAPSGSIFSVYAMGWYRQAPGKERELVAAISWSGGSTYYADSVKGRFTISRDNAKNTVYLQLNSLKPEDTAVYYCNAKHLPRHRDYWGQGTQVTVSS	low polyreactivity
QVQLVESGGGLVQAGGSLRLSCAASGRIFYPYAMGWYRQAPGKEREVVAGITSSDDTTYYADSVKGRFTISRDNAKNTVYLQMNSLKPEDTAVYYCNTSVDRGLGYWGQGTQVTVSS	low polyreactivity
QVQLVESGGGLVQAGGSLRLSCAASGITFPYYTMGWYRQAPGKERELVATIRNGGSTYYADSVKGRFTISRDNAKNTVYLQMNSMKPEDTAVYYCAAVPLWDYKFFYYLLYDYWGQGTQVTVSS	low polyreactivity
